Read-outs that look alike come from different tables or passages of the source.

For orientation: stoichiometry N means a count of units in the complex or per binding partner.

What all share (assay): ITC
(In general: ITC needs no label: the signal is the heat of the interaction.)

Experiment [1] concerns the target T1, Escherichia coli single-stranded DNA binding protein (SSB) (E. coli, UniProt P0AGE0 1-178).
Experiment [2] addresses T1, Escherichia coli single-stranded DNA …. This is another data set of the same source.
The target is the same in experiment [3]. The source holds these as a separate data set.
The target is the same in experiment [4]. This is another data set of the same source.

T1 sequence (P0AGE0 whole entry): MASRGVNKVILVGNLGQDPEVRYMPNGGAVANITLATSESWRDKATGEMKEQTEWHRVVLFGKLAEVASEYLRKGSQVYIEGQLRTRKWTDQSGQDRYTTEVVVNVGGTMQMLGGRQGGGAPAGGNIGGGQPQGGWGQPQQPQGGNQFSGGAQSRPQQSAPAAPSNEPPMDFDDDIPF

B1: PriA DNA helicase (enzyme, E. coli, UniProt P17888 1-732, looked up)
chain: MPVAHVALPVPLPRTFDYLLPEGMTVKAGCRVRVPFGKQQERIGIVVSVSDASELPLNELKAVVEVLDSEPVFTHSVWRLLLWAADYYHHPIGDVLFHALPILLRQGRPAANAPMWYWFATEQGQAVDLNSLKRSPKQQQALAALRQGKIWRDQVATLEFNDAALQALRKKGLCDLASETPEFSDWRTNYAVSGERLRLNTEQATAVGAIHSAADTFSAWLLAGVTGSGKTEVYLSVLENVLAQGKQALVMVPEIGLTPQTIARFRERFNAPVEVLHSGLNDSERLSAWLKAKNGEAAIVIGTRSALFTPFKNLGVIVIDEEHDSSYKQQEGWRYHARDLAVYRAHSEQIPIILGSATPALETLCNVQQKKYRLLRLTRRAGNARPAIQHVLDLKGQKVQAGLAPALITRMRQHLQADNQVILFLNRRGFAPALLCHDCGWIAECPRCDHYYTLHQAQHHLRCHHCDSQRPVPRQCPSCGSTHLVPVGLGTEQLEQTLAPLFPGVPISRIDRDTTSRKGALEQQLAEVHRGGARILIGTQMLAKGHHFPDVTLVALLDVDGALFSADFRSAERFAQLYTQVAGRAGRAGKQGEVVLQTHHPEHPLLQTLLYKGYDAFAEQALAERRMMQLPPWTSHVIVRAEDHNNQHAPLFLQQLRNLILSSPLADEKLWVLGPVPALAPKRGGRWRWQILLQHPSRVRLQHIINGTLALINTIPDSRKVKWVLDVDPIEG
For B1, the dH was -28 kcal/mol in experiment [1], -5.1 kcal/mol in experiment [2], -28.7 kcal/mol in experiment [3] and -6.8 kcal/mol in experiment [4]. Moreover, the “stoichiometry N” value in experiment [1] turned out to be 1.7; in experiment [2], 3.7; in experiment [3] it was 5.2; in experiment [4], 4.6.

The values are drawn from PMC2583361 (Critical reviews in biochemistry and molecular biology, 2008).
